The source of these data is publication PMC3379994 (2012).

First the molecules themselves.
B1: SH3 domain from p85α, displayed on M13 phage (domain or fragment)
chain: AEGYQYRALYDYKKEREEDIDLHLGDILTVNKGSLVALGFSDGQEARPEEIGWLNGYNETTGERGDFPGTYVEYIGR
B2: SH3 domain #2 from Nck1, displayed on M13 phage (domain or fragment)
chain: DLNMPAYVKFNYMAEREDELSLIKGTKVIVMEKCSDGWWRGSYNGQVGWFPSNYVTEEGD
B3: SH3 domain from Fyn, displayed on M13 phage (domain or fragment)
chain: not shown
B4: SH3 domain from Yes, displayed on M13 phage (domain or fragment)
chain: not shown
B5: SH3 domain from Hck, displayed on M13 phage (domain or fragment)
chain: not shown
B6: SH3 domain from Osteoclast stimulating factor 1, displayed on M13 phage (domain or fragment)
chain: GQVKVFRALYTFEPRTPDELYFEEGDIIYITDMSDTNWWKGTSKGRTGLIPSNYVAEQAE
B7: SH3 domain from Lyn, displayed on M13 phage (domain or fragment)
chain: EQGDIVVALYPYDGIHPDDLSFKKGEKMKVLEEHGEWWKAKSLLTKKEGFIPSNYVAKLNT
B8: SH3 domain #3 from Intersectin 2, displayed on M13 phage (domain or fragment)
chain: SVGEEYIALYPYSSVEPGDLTFTEGEEILVTQKDGEWWTGSIGDRSGIFPSNYVKPKDQ

His-tagged Sam68 (Src-associated in mitosis, 68 kDa), sequence (Q07666 whole entry): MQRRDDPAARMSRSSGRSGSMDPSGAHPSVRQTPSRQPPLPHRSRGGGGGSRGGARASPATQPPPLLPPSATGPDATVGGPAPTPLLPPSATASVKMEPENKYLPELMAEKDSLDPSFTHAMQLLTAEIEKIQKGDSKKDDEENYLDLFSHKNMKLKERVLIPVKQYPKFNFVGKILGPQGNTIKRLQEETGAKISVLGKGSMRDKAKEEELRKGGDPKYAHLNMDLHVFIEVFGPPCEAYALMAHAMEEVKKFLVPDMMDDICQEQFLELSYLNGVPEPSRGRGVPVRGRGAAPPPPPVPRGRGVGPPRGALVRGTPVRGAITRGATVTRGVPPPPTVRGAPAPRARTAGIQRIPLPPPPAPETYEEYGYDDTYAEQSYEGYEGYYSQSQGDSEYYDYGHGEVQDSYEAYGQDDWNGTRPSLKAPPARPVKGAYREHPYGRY

This experiment concerns the target His-tagged Sam68 (Src-associated in mitosis, 68 kDa) (human (cDNA from HEK293T cells), UniProt Q07666 1-443). The experiment in a line: ELISA. (In an ELISA, binding on a coated surface is turned into a signal by an enzyme label.)
One may read the Kd as the equilibrium constant for the complex coming apart. Turning to B1, binding was put at a Kd of 13 nM.

For the molecule B2, the Kd is 31 nM.

In turn, B3 yielded a Kd of 41 nM.

B4 registered an equilibrium dissociation constant (Kd) of 5.5 nM.

For B5, the Kd stood at 31 nM.

In turn, B6 yielded a dissociation constant (Kd) of 22 nM.

B7 gave a Kd of 7.9 nM.

Turning to B8, the Kd was determined as 59 nM.
